Measurements reported in publication PMC9482650, “Quantitative fragmentomics allow affinity mapping of interactomes” (Nature Communications, 2022).

T1: CNKSR1, Q969H4
T1 sequence (Q969H4 191-295, limits assumed, looked up): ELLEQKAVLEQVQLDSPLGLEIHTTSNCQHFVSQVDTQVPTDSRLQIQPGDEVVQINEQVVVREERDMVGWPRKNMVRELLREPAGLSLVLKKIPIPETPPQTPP

T2: RGS12, O14924
T2 sequence (O14924 17-108, limits assumed, looked up): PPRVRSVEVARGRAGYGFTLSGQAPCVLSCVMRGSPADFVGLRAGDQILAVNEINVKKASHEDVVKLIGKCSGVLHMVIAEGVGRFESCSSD


Columns and labels:
Experiment in all cases: holdup assay
Parameters in all cases: key: below the threshold = too weak to quantify, mostly under pKd 3.1 to 4
Conditions in all cases: plain residues with an end cap or a label only (N-terminal biotin on a linker: ttds)
O15021 = target: O15021
Q96JY6 = target: Q96JY6
Q6ZWJ1 = target: Q6ZWJ1
Q12923 = target: Q12923
Q9UDY2 = target: Q9UDY2
CNKSR1, Q969H4 = target: T1, CNKSR1, Q969H4
Q96FS4 = target: Q96FS4
Q96SB3 = target: Q96SB3
Q70Z35 = target: Q70Z35
Q9NPB6 = target: Q9NPB6
O75970 = target: O75970
Q8TDM6 = target: Q8TDM6
Q9NR12 = target: Q9NR12
RGS12, O14924 = target: T2, RGS12, O14924
O43166 = target: O43166
Q8TB45 = target: Q8TB45
GIPC3, Q8TF64 = target: GIPC3, Q8TF64
Sequence of GIPC3, Q8TF64 (Q8TF64 107-202): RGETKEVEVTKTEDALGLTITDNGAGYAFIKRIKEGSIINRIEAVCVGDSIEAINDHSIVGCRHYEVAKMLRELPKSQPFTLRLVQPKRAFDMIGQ

Q5TCQ9 = target: Q5TCQ9
Q96HC4 = target: Q96HC4
Q13368 = target: Q13368
Q13009 = target: Q13009
Q9H190 = target: Q9H190
LIMK1, P53667 = target: LIMK1, P53667
Sequence of LIMK1, P53667 (P53667 155-268): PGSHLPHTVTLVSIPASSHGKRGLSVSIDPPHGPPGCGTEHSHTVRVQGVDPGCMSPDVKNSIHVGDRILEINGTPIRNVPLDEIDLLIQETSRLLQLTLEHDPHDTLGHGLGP

pKd (O15021) | pKd (Q96JY6) | pKd (Q6ZWJ1) | pKd (Q12923) | pKd (Q9UDY2) | pKd (CNKSR1, Q969H4) | pKd (Q96FS4) | pKd (Q96SB3) | pKd (Q70Z35) | pKd (Q9NPB6) | pKd (O75970) | pKd (Q8TDM6) | pKd (Q9NR12) | pKd (RGS12, O14924) | pKd (O43166) | pKd (Q8TB45) | pKd (GIPC3, Q8TF64) | pKd (Q5TCQ9) | pKd (Q96HC4) | pKd (Q13368) | Binder | other results
below the threshold | below the threshold | below the threshold | below the threshold | below the threshold | below the threshold | below the threshold | below the threshold | below the threshold | below the threshold | below the threshold | below the threshold | below the threshold | below the threshold | below the threshold | below the threshold | below the threshold | below the threshold | below the threshold | below the threshold | IQREDQETAV [DGKZ, Q13574] | pKd (Q13009): below the threshold; pKd (Q9H190): below the threshold
below the threshold | below the threshold | below the threshold | below the threshold | below the threshold | 4.3 | below the threshold | below the threshold | below the threshold | below the threshold | below the threshold | below the threshold | below the threshold | below the threshold | below the threshold | below the threshold | below the threshold | below the threshold | below the threshold | below the threshold | DPLTPSRSQL [DGKK, Q5KSL6] | pKd (LIMK1, P53667): 4.32; pKd (Q13009): below the threshold; pKd (Q9H190): below the threshold
below the threshold | below the threshold | below the threshold | below the threshold | below the threshold | below the threshold | below the threshold | below the threshold | below the threshold | below the threshold | below the threshold | below the threshold | below the threshold | below the threshold | below the threshold | below the threshold | below the threshold | below the threshold | below the threshold | below the threshold | NYWPGKETQL [SLCO1C1, Q9NYB5] | pKd (LIMK1, P53667): below the threshold; pKd (Q13009): below the threshold; pKd (Q9H190): below the threshold
